± gives the uncertainty stated by the source.
B1: Far upstream element-binding protein 1, residues 184 to 257; numbered along this chain, Q96AE4 (parent)
chain: GNAVQEIMIPASKAGLVIGKGGETIKQLQERAGVKMVMIQDGPQNTGADKPLRITGDPYKVQQAKEMVLELIRD

Variants of: B1
Assay: abundance fitness (aPCA) (normalised: wild type 0, dead -1); higher = more abundant; growth selection in yeast, the domain comes from the species named
Settings: Homo sapiens

| Variant | abundance fitness |
| --- | --- |
| GNAVQEIMIPASKAGLVIGKGGETIKQLQERAGVKMVMIQDGPQNTGADKPLRITGDPYKVHQAKEMVLELIRD [Q62H] | -0.069 ± 0.047 |
| GNAVQEIMIPASKAGLVIGKGGETIKQLQERAGVKMVMIQDGPQNTGADKPLRITGDPYKVWQAKEMVLELIRD [Q62W] | -0.114 ± 0.035 |
| GNAVQEIMIPASKAGLVIGKGGETIKQLQERAGVKMVMIQDGPQNTGADKPLRITGDPYKVCQAKEMVLELIRD [Q62C] | -0.037 ± 0.041 |
| GNAVQEIMIPASKAGLVIGKGGETIKQLQERAGVKMVMIQDGPQNTGADKPLRITGDPYKVNQAKEMVLELIRD [Q62N] | -0.097 ± 0.044 |
| GNAVQEIMIPASKAGLVIGKGGETIKQLQERAGVKMVMIQDGPQNTGADKPLRITGDPYKVMQAKEMVLELIRD [Q62M] | -0.075 ± 0.041 |
| GNAVQEIMIPASKAGLVIGKGGETIKQLQERAGVKMVMIQDGPQNTGADKPLRITGDPYKVGQAKEMVLELIRD [Q62G] | -0.03 ± 0.027 |
| GNAVQEIMIPASKAGLVIGKGGETIKQLQERAGVKMVMIQDGPQNTGADKPLRITGDPYKVYQAKEMVLELIRD [Q62Y] | -0.04 ± 0.051 |
| GNAVQEIMIPASKAGLVIGKGGETIKQLQERAGVKMVMIQDGPQNTGADKPLRITGDPYKVAQAKEMVLELIRD [Q62A] | 0.007 ± 0.03 |
| GNAVQEIMIPASKAGLVIGKGGETIKQLQERAGVKMVMIQDGPQNTGADKPLRITGDPYKVFQAKEMVLELIRD [Q62F] | -0.105 ± 0.048 |
| GNAVQEIMIPASKAGLVIGKGGETIKQLQERAGVKMVMIQDGPQNTGADKPLRITGDPYKVTQAKEMVLELIRD [Q62T] | -0.011 ± 0.035 |
| GNAVQEIMIPASKAGLVIGKGGETIKQLQERAGVKMVMIQDGPQNTGADKPLRITGDPYKVKQAKEMVLELIRD [Q62K] | -0.022 ± 0.035 |
| GNAVQEIMIPASKAGLVIGKGGETIKQLQERAGVKMVMIQDGPQNTGADKPLRITGDPYKVEQAKEMVLELIRD [Q62E] | 0.02 ± 0.034 |
| GNAVQEIMIPASKAGLVIGKGGETIKQLQERAGVKMVMIQDGPQNTGADKPLRITGDPYKVVQAKEMVLELIRD [Q62V] | -0.049 ± 0.03 |
| GNAVQEIMIPASKAGLVIGKGGETIKQLQERAGVKMVMIQDGPQNTGADKPLRITGDPYKVRQAKEMVLELIRD [Q62R] | -0.059 ± 0.026 |
| GNAVQEIMIPASKAGLVIGKGGETIKQLQERAGVKMVMIQDGPQNTGADKPLRITGDPHKVQQAKEMVLELIRD [Y59H] | 0.044 ± 0.044 |
| GNAVQEIMIPASKAGLVIGKGGETIKQLQERAGVKMVMIQDGPQNTGADKPLRITGDPPKVQQAKEMVLELIRD [Y59P] | 0.015 ± 0.031 |
| GNAVQEIMIPASKAGLVIGKGGETIKQLQERAGVKMVMIQDGPQNTGADKPLRITGDPMKVQQAKEMVLELIRD [Y59M] | -0.043 ± 0.035 |
| GNAVQEIMIPASKAGLVIGKGGETIKQLQERAGVKMVMIQDGPQNTGADKPLRITGDPNKVQQAKEMVLELIRD [Y59N] | 0.047 ± 0.047 |
| GNAVQEIMIPASKAGLVIGKGGETIKQLQERAGVKMVMIQDGPQNTGADKPLRITGDPIKVQQAKEMVLELIRD [Y59I] | 0.046 ± 0.048 |

| Variant | abundance fitness |
| --- | --- |
| GNAVQEIMIPASKAGLVIGKGGETIKQLQERAGVKMVMIQDGPQNTGADKPLRITGDPTKVQQAKEMVLELIRD [Y59T] | 0.047 ± 0.033 |
| GNAVQEIMIPASKAGLVIGKGGETIKQLQERAGVKMVMIQDGPQNTGADKPLRITGDPWKVQQAKEMVLELIRD [Y59W] | 0.021 ± 0.032 |
| GNAVQEIMIPASKAGLVIGKGGETIKQLQERAGVKMVMIQDGPQNTGADKPLRITGDPSKVQQAKEMVLELIRD [Y59S] | 0.006 ± 0.029 |
| GNAVQEIMIPASKAGLVIGKGGETIKQLQERAGVKMVMIQDGPQNTGADKPLRITGDPLKVQQAKEMVLELIRD [Y59L] | 0.026 ± 0.028 |
| GNAVQEIMIPASKAGLVIGKGGETIKQLQERAGVKMVMIQDGPQNTGADKPLRITGDPVKVQQAKEMVLELIRD [Y59V] | -0.024 ± 0.029 |
| GNAVQEIMIPASKAGLVIGKGGETIKQLQERAGVKMVMIQDGPQNTGADKPLRITGDPKKVQQAKEMVLELIRD [Y59K] | 0.036 ± 0.036 |
| GNAVQEIMIPASKAGLVIGKGGETIKQLQERAGVKMVMIQDGPQNTGADKPLRITGDPRKVQQAKEMVLELIRD [Y59R] | 0.032 ± 0.025 |
| GNAVQEIMIPASKAGLVIGKGGETIKQLQERAGVKMVMIQDGPQNTGADKPLRITGDPYRVQQAKEMVLELIRD [K60R] | -0.052 ± 0.026 |
| GNAVQEIMIPASKAGLVIGKGGETIKQLQERAGVKMVMIQDGPQNTGADKPLRITGDPYIVQQAKEMVLELIRD [K60I] | -0.653 ± 0.072 |
| GNAVQEIMIPASKAGLVIGKGGETIKQLQERAGVKMVMIQDGPQNTGADKPLRITGDPYLVQQAKEMVLELIRD [K60L] | -0.065 ± 0.028 |
| GNAVQEIMIPASKAGLVIGKGGETIKQLQERAGVKMVMIQDGPQNTGADKPLRITGDPYMVQQAKEMVLELIRD [K60M] | -0.118 ± 0.038 |
| GNAVQEIMIPASKAGLVIGKGGETIKQLQERAGVKMVMIQDGPQNTGADKPLRITGDPYGVQQAKEMVLELIRD [K60G] | -0.086 ± 0.026 |
| GNAVQEIMIPASKAGLVIGKGGETIKQLQERAGVKMVMIQDGPQNTGADKPLRITGDPYPVQQAKEMVLELIRD [K60P] | -0.179 ± 0.033 |
| GNAVQEIMIPASKAGLVIGKGGETIKQLQERAGVKMVMIQDGPQNTGADKPLRITGDPYFVQQAKEMVLELIRD [K60F] | -0.277 ± 0.047 |
| GNAVQEIMIPASKAGLVIGKGGETIKQLQERAGVKMVMIQDGPQNTGADKPLRITGDPYTVQQAKEMVLELIRD [K60T] | -0.278 ± 0.036 |
| GNAVQEIMIPASKAGLVIGKGGETIKQLQERAGVKMVMIQDGPQNTGADKPLRITGDPYDVQQAKEMVLELIRD [K60D] | -0.164 ± 0.041 |
| GNAVQEIMIPASKAGLVIGKGGETIKQLQERAGVKMVMIQDGPQNTGADKPLRITGDPYCVQQAKEMVLELIRD [K60C] | 0.002 ± 0.039 |
| GNAVQEIMIPASKAGLVIGKGGETIKQLQERAGVKMVMIQDGPQNTGADKPLRITGDPYYVQQAKEMVLELIRD [K60Y] | -0.233 ± 0.056 |
